Measurements reported in article PMC3794980.

Legend:
Assay in all cases: radioligand binding
[1] = target: HLA-DR DRB4*0101 (human (endogenous in EBV transformed cell lines))
[2] = target: HLA-DR DRB1*0101 (human (endogenous in EBV transformed cell lines))
[3] = target: HLA-DR DRB1*1501 (human (endogenous in EBV transformed cell lines))
[4] = target: HLA-DR DRB1*0802 (human (endogenous in EBV transformed cell lines))
[5] = target: HLA-DR DRB1*1101 (human (endogenous in EBV transformed cell lines))
[6] = target: HLA-DR DRB1*0405 (human (endogenous in EBV transformed cell lines))
[7] = target: HLA-DR DRB1*0901 (human (endogenous in EBV transformed cell lines))
[8] = target: HLA-DR DRB5*0101 (human (endogenous in EBV transformed cell lines))
[9] = target: HLA-DR DRB1*0701 (human (endogenous in EBV transformed cell lines))
[10] = target: HLA-DR DRB3*0101 (human (endogenous in EBV transformed cell lines))
[11] = target: HLA-DR DRB1*0301 (human (endogenous in EBV transformed cell lines))
[12] = target: HLA-DR DRB1*0401 (human (endogenous in EBV transformed cell lines))
[13] = target: HLA-DR DRB1*1302 (human (endogenous in EBV transformed cell lines))

DENV3 Envelope 51-65 (peptide)
IC50 [1]: 154 nM | IC50 [2]: 80.6 nM | IC50 [3]: 982 nM | IC50 [4]: 130 nM | IC50 [5]: 40.4 nM

DENV3 Envelope 121-135 (peptide)
IC50 [3]: 404 nM

DENV3 Envelope 126-140 (peptide)
IC50 [6]: 89.7 nM | IC50 [1]: 59.1 nM | IC50 [2]: 980 nM | IC50 [3]: 21.5 nM | IC50 [4]: 37.1 nM

DENV3 Envelope 171-185 (peptide)
IC50 [1]: 787 nM | IC50 [2]: 62.6 nM | IC50 [4]: 91.2 nM

DENV3 Envelope 231-245 (peptide)
IC50 [7]: 48.4 nM | IC50 [2]: 5.11 nM | IC50 [8]: 24.6 nM | IC50 [3]: 5.25 nM

DENV3 Envelope 236-250 (peptide)
IC50 [9]: 560 nM | IC50 [2]: 340 nM | IC50 [8]: 29.6 nM | IC50 [4]: 419 nM

DENV3 Envelope 251-265 (peptide)
IC50 [2]: 588 nM | IC50 [8]: 722 nM

DENV3 Envelope 261-275 (peptide)
IC50 [9]: 82.1 nM

DENV3 Envelope 281-295 (peptide)
IC50 [10]: 31.1 nM | IC50 [11]: 16.7 nM | IC50 [3]: 652 nM

DENV3 Envelope 301-315 (peptide)
IC50 [12]: 26.6 nM | IC50 [4]: 58.9 nM

DENV3 Envelope 306-320 (peptide)
IC50 [12]: 530 nM

DENV3 Envelope 316-330 (peptide)
IC50 [3]: 361 nM | IC50 [5]: 153 nM

DENV3 Envelope 346-360 (peptide)
IC50 [12]: 343 nM | IC50 [9]: 67.6 nM | IC50 [2]: 4.5 nM | IC50 [13]: 14.5 nM | IC50 [3]: 332 nM | IC50 [4]: 288 nM

DENV3 Envelope 366-380 (peptide)
IC50 [9]: 552 nM | IC50 [4]: 762 nM

DENV3 Envelope 376-390 (peptide)
IC50 [10]: 15.3 nM | IC50 [2]: 476 nM | IC50 [3]: 448 nM | IC50 [4]: 84.6 nM

DENV3 Envelope 396-410 (peptide)
IC50 [7]: 39.9 nM | IC50 [10]: 424 nM | IC50 [9]: 296 nM | IC50 [2]: 4.89 nM | IC50 [11]: 424 nM | IC50 [8]: 26.8 nM | IC50 [3]: 258 nM | IC50 [4]: 106 nM | IC50 [5]: 38.9 nM

DENV3 NS1 29-43 (peptide)
IC50 [10]: 10.6 nM | IC50 [8]: 22.8 nM

DENV3 NS1 33-47 (peptide)
IC50 [10]: 22.4 nM | IC50 [1]: 916 nM

DENV3 NS1 69-83 (peptide)
IC50 [10]: 50.2 nM

DENV3 NS1 93-107 (peptide)
IC50 [9]: 483 nM

DENV3 NS1 121-135 (peptide)
IC50 [1]: 382 nM | IC50 [2]: 355 nM | IC50 [4]: 45.5 nM

DENV3 NS1 133-147 (peptide)
IC50 [10]: 62.3 nM

DENV3 NS1 173-187 (peptide)
IC50 [7]: 608 nM | IC50 [10]: 57.5 nM | IC50 [12]: 502 nM | IC50 [2]: 25.9 nM | IC50 [11]: 787 nM | IC50 [8]: 753 nM | IC50 [5]: 651 nM

DENV3 NS1 193-207 (peptide)
IC50 [10]: 24.3 nM | IC50 [1]: 180 nM

DENV3 NS1 225-239 (peptide)
IC50 [12]: 322 nM | IC50 [13]: 58.9 nM

DENV3 NS1 229-243 (peptide)
IC50 [10]: 733 nM | IC50 [12]: 178 nM | IC50 [11]: 170 nM

DENV3 NS1 233-247 (peptide)
IC50 [10]: 159 nM | IC50 [12]: 87 nM | IC50 [11]: 72.6 nM

DENV3 NS1 241-255 (peptide)
IC50 [2]: 50.7 nM

DENV3 NS1 261-275 (peptide)
IC50 [1]: 666 nM

DENV3 NS1 269-283 (peptide)
IC50 [10]: 71.3 nM

DENV3 NS1 293-307 (peptide)
IC50 [1]: 793 nM | IC50 [9]: 83.2 nM

DENV3 NS1 297-311 (peptide)
IC50 [12]: 484 nM | IC50 [9]: 262 nM | IC50 [2]: 228 nM | IC50 [3]: 736 nM | IC50 [4]: 561 nM

DENV3 NS1 305-319 (peptide)
IC50 [11]: 841 nM

DENV3 NS1 313-327 (peptide)
IC50 [1]: 503 nM

DENV3 NS3 53-67 (peptide)
IC50 [8]: 329 nM

DENV3 NS3 57-71 (peptide)
IC50 [2]: 882 nM | IC50 [3]: 196 nM

DENV3 NS3 61-75 (peptide)
IC50 [8]: 143 nM | IC50 [13]: 84.5 nM

DENV3 NS3 69-83 (peptide)
IC50 [3]: 29.5 nM

DENV3 NS3 73-87 (peptide)
IC50 [8]: 70.7 nM

DENV3 NS3 77-91 (peptide)
IC50 [7]: 268 nM | IC50 [1]: 708 nM | IC50 [3]: 52.1 nM

DENV3 NS3 101-115 (peptide)
IC50 [6]: 725 nM | IC50 [2]: 201 nM | IC50 [3]: 447 nM

DENV3 NS3 105-119 (peptide)
IC50 [7]: 407 nM | IC50 [1]: 843 nM | IC50 [2]: 49 nM | IC50 [8]: 177 nM | IC50 [4]: 175 nM

DENV3 NS3 109-123 (peptide)
IC50 [2]: 148 nM | IC50 [4]: 557 nM

DENV3 NS3 113-127 (peptide)
IC50 [12]: 17.9 nM | IC50 [2]: 226 nM

DENV3 NS3 121-135 (peptide)
IC50 [11]: 8.64 nM

DENV3 NS3 125-139 (peptide)
IC50 [11]: 47.2 nM

DENV3 NS3 137-151 (peptide)
IC50 [2]: 843 nM | IC50 [3]: 502 nM

DENV3 NS3 181-195 (peptide)
IC50 [1]: 67.8 nM | IC50 [3]: 891 nM

DENV3 NS3 185-199 (peptide)
IC50 [12]: 171 nM | IC50 [6]: 972 nM | IC50 [1]: 7.64 nM | IC50 [11]: 870 nM | IC50 [4]: 21 nM | IC50 [5]: 71.8 nM

DENV3 NS3 209-223 (peptide)
IC50 [1]: 5.06 nM

DENV3 NS3 241-255 (peptide)
IC50 [9]: 525 nM | IC50 [8]: 16.7 nM

DENV3 NS3 313-327 (peptide)
IC50 [4]: 39.7 nM

DENV3 NS3 345-359 (peptide)
IC50 [10]: 31.8 nM

DENV3 NS3 349-363 (peptide)
IC50 [10]: 221 nM | IC50 [3]: 608 nM

DENV3 NS3 357-371 (peptide)
IC50 [7]: 100 nM | IC50 [10]: 711 nM | IC50 [1]: 759 nM | IC50 [9]: 29.5 nM | IC50 [2]: 15.9 nM | IC50 [11]: 436 nM | IC50 [8]: 273 nM | IC50 [3]: 15.7 nM

DENV3 NS3 381-395 (peptide)
IC50 [10]: 399 nM

DENV3 NS3 389-403 (peptide)
IC50 [5]: 676 nM

DENV3 NS3 393-407 (peptide)
IC50 [9]: 456 nM

DENV3 NS3 409-423 (peptide)
IC50 [10]: 168 nM | IC50 [11]: 470 nM | IC50 [8]: 50.3 nM

DENV3 NS3 413-427 (peptide)
IC50 [10]: 96.1 nM | IC50 [11]: 261 nM

DENV3 NS3 417-431 (peptide)
IC50 [10]: 632 nM

DENV3 NS3 429-443 (peptide)
IC50 [10]: 5.72 nM

DENV3 NS3 605-619 (peptide)
IC50 [8]: 19.6 nM | IC50 [3]: 28.1 nM | IC50 [4]: 36.8 nM

DENV3 NS5 29-45 (peptide)
IC50 [5]: 289 nM

DENV3 NS5 39-55 (peptide)
IC50 [10]: 749 nM | IC50 [1]: 563 nM

DENV3 NS5 45-61 (peptide)
IC50 [1]: 8.53 nM | IC50 [9]: 453 nM | IC50 [8]: 449 nM | IC50 [5]: 82.5 nM

DENV3 NS5 165-181 (peptide)
IC50 [8]: 19.9 nM

DENV3 NS5 193-209 (peptide)
IC50 [9]: 144 nM | IC50 [2]: 87.5 nM | IC50 [13]: 15.1 nM | IC50 [3]: 199 nM

DENV3 NS5 268-284 (peptide)
IC50 [1]: 869 nM

DENV3 NS5 284-300 (peptide)
IC50 [10]: 17.1 nM | IC50 [12]: 306 nM | IC50 [11]: 9.34 nM

DENV3 NS5 290-306 (peptide)
IC50 [2]: 299 nM

DENV3 NS5 295-311 (peptide)
IC50 [10]: 980 nM

DENV3 NS5 301-316 (peptide)
IC50 [10]: 536 nM

DENV3 NS5 306-322 (peptide)
IC50 [4]: 70.2 nM

DENV3 NS5 330-346 (peptide)
IC50 [4]: 4.01 nM

DENV3 NS5 336-352 (peptide)
IC50 [1]: 747 nM

DENV3 NS5 447-463 (peptide)
IC50 [8]: 25 nM

DENV3 NS5 489-505 (peptide)
IC50 [10]: 387 nM | IC50 [6]: 236 nM | IC50 [2]: 231 nM | IC50 [11]: 118 nM | IC50 [8]: 936 nM

DENV3 NS5 495-511 (peptide)
IC50 [7]: 448 nM | IC50 [12]: 14.9 nM | IC50 [9]: 190 nM | IC50 [8]: 723 nM

DENV3 NS5 501-517 (peptide)
IC50 [7]: 351 nM | IC50 [12]: 73.6 nM | IC50 [9]: 17.5 nM | IC50 [2]: 6.98 nM | IC50 [4]: 836 nM

DENV3 NS5 511-527 (peptide)
IC50 [1]: 56.7 nM | IC50 [8]: 611 nM

DENV3 NS5 523-539 (peptide)
IC50 [10]: 44.8 nM | IC50 [12]: 7.25 nM | IC50 [1]: 445 nM | IC50 [2]: 733 nM | IC50 [11]: 9.29 nM | IC50 [5]: 170 nM

DENV3 NS5 558-574 (peptide)
IC50 [6]: 667 nM | IC50 [9]: 134 nM | IC50 [11]: 586 nM | IC50 [8]: 391 nM | IC50 [3]: 401 nM | IC50 [5]: 173 nM

DENV3 NS5 570-586 (peptide)
IC50 [8]: 27.8 nM

DENV3 NS5 576-592 (peptide)
IC50 [1]: 108 nM | IC50 [13]: 297 nM

DENV3 NS5 582-598 (peptide)
IC50 [5]: 106 nM

DENV3 NS5 588-604 (peptide)
IC50 [5]: 124 nM

DENV3 NS5 636-652 (peptide)
IC50 [9]: 352 nM | IC50 [3]: 453 nM

DENV3 NS5 642-658 (peptide)
IC50 [2]: 166 nM | IC50 [11]: 775 nM | IC50 [8]: 5.07 nM | IC50 [3]: 59.4 nM | IC50 [5]: 665 nM

DENV3 NS5 658-674 (peptide)
IC50 [4]: 453 nM

DENV3 NS5 670-686 (peptide)
IC50 [1]: 971 nM | IC50 [8]: 478 nM

DENV3 NS5 780-795 (peptide)
IC50 [1]: 168 nM

DENV3 NS5 838-854 (peptide)
IC50 [7]: 680 nM | IC50 [10]: 79.2 nM
